Patent publication US8470780B2, “Methods and compositions related to targeting wounds, regenerating tissue, and tumors” (Sanford-Burnham Medical Research Institute, priority 2006, dated 2013)

Assays:
CHO-K cells = assay: CHO-K cell proliferation with decorins; format: cell-based, Chinese hamster; conditions: 0.3 μg/ml/day of decorins
Protocol: The effect of decorin preparations on CHO-K cell proliferation was determined as described previously (Yamaguchi 1990; Yamaguchi 1988). The cells were grown in media containing fetal bovine serum that had been dialyzed in a dialysis cassette (Pierce, Rockford, Ill.). The cells were plated in duplicate at a density of 2×10^4 cells per well in 24-well plates and cultured in 600 μl of culture media. Half of the medium was replaced daily with fresh medium containing decorin. Cells were collected by trypsinization, washed and resuspended in 1 ml of PBS containing 2 μg/ml of propidium iodide (PI) and 20,000 CountBright counting beads (Invitrogen, Carlsbad, Calif.), and analyzed by counting 1,000 beads in FACS. Cell number was also determined by hemocytometer.

[1] = tested on: full thickness excision wounds in the dorsal skin; assay: Skin wound healing treatment with decorins; format: in vivo, mice
Protocol: Next, the effect of the homing peptide decorins on wound healing was examined. The daily dose of 40 μg/day was chosen based on previous decorin studies (Seidler 2006; Yang 1999). The dose was doubled on Days 4-6, coincident with the peak in TGF-β expression in wounds (Brunner 2004; Yang 1999). The treatments were started on Day 3 after wounding, when granulation tissue first forms in wounds (Brunner 2004), and continued for 7,9, or 11 days in three independent treatment experiments. Several parameters commonly used to assess wound repair and scarring were measured (Ashcroft 1999; Cheon 2006; Shah 1995). […]
(§1) The treatments were started three days after wounding and consisted of daily tail vein injections. […] The ratio was reversed from Day 7 based on previously determined homing profiles of CRK and CAR phage to wounds at different time-points. The wounds were inspected and photographed daily, and scored for complete re-epithelialization. […]
Image analysis and quantification of granulation tissue/wound area, and hyperproliferative epidermis were done using ImageJ program (NIH, Bethesda, […].). The wounds were cut in the middle, one section from each side of the wound was evaluated, and the average of these two values was used in the analysis. The length of hyperproliferative epidermis and size of the wound tissue were determined from the Masson trichrome stained tissue sections. […]

[2] = tested on: full thickness skin wounds; assay: Accumulation of intravenously injected decorins in wound tissue (anti-6-histidine tag staining); format: in vivo, mice; conditions: daily intravenous injections Days 3-5; evaluated Day 5
Protocol: Mice with full thickness skin wounds, received daily intravenous injections as indicated on Days 3-5 after the wounding (n=4 per group, 2 wounds per animal). On Day 5, the presence of decorins was evaluated with anti-6-histidine tag antibody (which stains brown) by examining two sections from each wound.
Six 8-week-old male BALB/c mice were anesthetized with intraperitoneally-injected 2.5% avertin Skin was shaved, cleaned, and disinfected with betadine and 70% alcohol. All animal experiments received approval from the IACUC of Burnham Institute for Medical Research. Treatment trials were conducted on mice that had circular, 8 mm-diameter, full thickness (including panniculus carnosus muscle) excision wounds in the dorsal skin. […]
as §1
Frozen sections were fixed in acetone for 10 min and pre-incubated with 0.5% blocking reagent for 1 hr (NEN Life Sciences, Boston, Mass.). […] The primary antibodies were detected with corresponding secondary antibodies, and each staining experiment included slides stained with species-matched immunoglobulins as negative controls. […]

B1: decorin: recombinant his-tagged human decorin, small leucine-rich chondroitin sulfate proteoglycan (protein, UniProt P07585 31-359, looked up)
Decorin: DEASGIGPEVPDDRDFEPSLGPVCPFRCQCHLRVVQCSDLGLDKVPKDLPPDTTLLDLQNNKITEIKDGDFKNLKNLHALILVNNKISKVSPGAFTPLVKLERLYLSKNQLKELPEKMPKTLQELRAHENEITKVRKVTFNGLNQMIVIELGTNPLKSSGIENGAFQGMKKLSYIRIADTNITSIPQGLPPSLTELHLDGNKISRVDAASLKGLNNLAKLGLSFNSISAVDNGSLANTPHLRELHLDNNKLTRVPGGLAEHKYIQVVYLHNNNISVVGSSDFCPPGHNTKKASYSGVSLFSNPVQYWEIQPSTFRCVYVRSAIQLGNYK
modifications: His-tag
notes: recombinant his-tagged human decorin, small leucine-rich chondroitin sulfate proteoglycan
inhibition of CHO-K cell proliferation (CHO-K cells): inhibited the proliferation of the CHO-K cells at high concentrations | change in granulation tissue/scar area ([1]; Day 14 after wounding): no statistically significant changes | prevention of scar formation ([1]; equivalent doses): inactive | decorin staining in skeletal muscle underlying the skin wounds [2]: No decorin-staining | decorin staining in wounds [2]: weakly positive for decorin staining
